Test results: article PMC6482348

T1: endogenous mouse PrxII (mouse (endogenous in MEFs and BMDMs)), Q61171
T1 chain: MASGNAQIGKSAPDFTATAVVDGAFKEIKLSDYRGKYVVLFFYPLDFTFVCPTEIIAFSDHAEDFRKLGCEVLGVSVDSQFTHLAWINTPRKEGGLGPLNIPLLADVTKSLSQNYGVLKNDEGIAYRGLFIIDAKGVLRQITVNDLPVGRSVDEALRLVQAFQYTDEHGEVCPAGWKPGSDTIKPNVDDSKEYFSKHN

T2: endogenous mouse PrxI (mouse (endogenous in BMDMs)), P35700
T2 chain: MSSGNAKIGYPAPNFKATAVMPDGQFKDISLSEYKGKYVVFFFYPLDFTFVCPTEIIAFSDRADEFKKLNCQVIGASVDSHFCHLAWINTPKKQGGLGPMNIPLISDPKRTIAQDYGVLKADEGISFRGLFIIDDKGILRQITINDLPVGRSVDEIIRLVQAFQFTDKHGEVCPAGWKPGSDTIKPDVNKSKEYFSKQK


How the values were obtained:
[1] = molecular target: T1, endogenous mouse PrxII (mouse …); assay: nonreducing SDS-PAGE and immunoblot of disulfide-linked complexes; conditions: remark: other sources report otherwise
[2] = molecular target: T2, endogenous mouse PrxI (mouse …); assay: as above; conditions: remark: other sources report otherwise

Row | stoichiometry N [1] | stoichiometry N [2] | Binder
1 | 2 | – | endogenous mouse PrxII, Q61171 1-198 (enzyme) MASGNAQIGKSAPDFTATAVVDGAFKEIKLSDYRGKYVVLFFYPLDFTFVCPTEIIAFSDHAEDFRKLGCEVLGVSVDSQFTHLAWINTPRKEGGLGPLNIPLLADVTKSLSQNYGVLKNDEGIAYRGLFIIDAKGVLRQITVNDLPVGRSVDEALRLVQAFQYTDEHGEVCPAGWKPGSDTIKPNVDDSKEYFSKHN
2 | – | 2 | endogenous mouse PrxI, P35700 1-199 (enzyme) MSSGNAKIGYPAPNFKATAVMPDGQFKDISLSEYKGKYVVFFFYPLDFTFVCPTEIIAFSDRADEFKKLNCQVIGASVDSHFCHLAWINTPKKQGGLGPMNIPLISDPKRTIAQDYGVLKADEGISFRGLFIIDDKGILRQITINDLPVGRSVDEIIRLVQAFQFTDKHGEVCPAGWKPGSDTIKPDVNKSKEYFSKQK
